Five substances from paper PMC11044841 can be followed below.

Assay [1] concerns the target RS3. As to the kind of experiment: mass spectrometry of G3BP1-GFP interactome. Conditions: HEK293T G3BP1/2 DKO cells; read off a plot.
In assay [2] the target is NUP93. Briefly: mass spectrometry of G3BP1-GFP interactome. Conditions: HEK293T G3BP1/2 DKO cells; read off a plot.
Assay [3] has as its target PABP4. As to the kind of experiment: mass spectrometry of G3BP1-GFP interactome. Conditions: HEK293T G3BP1/2 DKO cells; read off a plot.
The target of assay [4] is NU205. As to the kind of experiment: mass spectrometry of G3BP1-GFP interactome. The settings on record: HEK293T G3BP1/2 DKO cells; read off a plot.
The target of assay [5] is PABP1. As to the kind of experiment: mass spectrometry of G3BP1-GFP interactome. The settings on record: HEK293T G3BP1/2 DKO cells; read off a plot.
Assay [6] has as its target P121C. As to the kind of experiment: mass spectrometry of G3BP1-GFP interactome. The settings on record: HEK293T G3BP1/2 DKO cells; read off a plot.
Assay [7] addresses IMB1. As to the kind of experiment: mass spectrometry of G3BP1-GFP interactome. Conditions: HEK293T G3BP1/2 DKO cells; read off a plot.
In assay [8] the target is RBP2. Briefly: mass spectrometry of G3BP1-GFP interactome. Conditions: HEK293T G3BP1/2 DKO cells; read off a plot.
Assay [9] has as its target P121A. Briefly: mass spectrometry of G3BP1-GFP interactome. The settings on record: HEK293T G3BP1/2 DKO cells; read off a plot.
Assay [10] concerns the target NUFP2. As to the kind of experiment: mass spectrometry of G3BP1-GFP interactome. Conditions: HEK293T G3BP1/2 DKO cells; read off a plot.
In assay [11] the target is GST-NTF2L (GST-tagged NTF2-like domain of G3BP1) (human). Briefly: SPR. A general note: In SPR one partner is held on a chip, and binding of the other changes the refractive index at the surface.
In assay [12] the target is DDX6. As to the kind of experiment: mass spectrometry of G3BP1-GFP interactome. Conditions: HEK293T G3BP1/2 DKO cells; read off a plot.
Assay [13] has as its target PRC2C. As to the kind of experiment: mass spectrometry of G3BP1-GFP interactome. The settings on record: HEK293T G3BP1/2 DKO cells; read off a plot.
Assay [14] deals with TRAP1. Briefly: mass spectrometry of G3BP1-GFP interactome. The settings on record: HEK293T G3BP1/2 DKO cells; read off a plot.

Sequence of N-WT (1–25) peptide (P0DTC9 1-25): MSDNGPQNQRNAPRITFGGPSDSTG

On to G3BP1-EGFP (from UniProt Q13283) F33W, for which the other: Log2(fold change) is -6.4 in [1]; 8.4 in assay [2]; -8.9 in [3]; 8.7 in [4]; -4.1 in assay [5]; 2.5 in assay [6]. Further, the other: Log2(fold change) in assay [7] is 6.7; in assay [8] it was 8.9; in assay [9], 2.9; in [10], -9.7.

For the substance “N-WT (1–25) peptide (from UniProt P0DTC9 1-25)”, in [11], the Kd amounted to 1140 nM. This counts as single-digit micromolar.

As to G3BP1-EGFP (from UniProt Q13283) V11A, the other: Log2(fold change) in assay [12] is -2.3.

In the case of G3BP1-EGFP (from UniProt Q13283) F112A, the other: Log2(fold change) in assay [13] was 5.8; in assay [12], -2.7.

With G3BP1-EGFP (from UniProt Q13283) F124W, the other: Log2(fold change) in assay [14] is 6; in assay [7], 6.2.

By Kd is commonly meant the equilibrium constant for the complex coming apart. A higher Kd goes with weaker binding.
